Measured values published in PMC5674899.

Tests used:
[1] = molecular target: GFP-tagged WT NuMA-tail II (aa 1868–2091) (human) (UniProt Q14980); test: TIRF microscopy of GFP-tagged protein on immobilised microtubules
[2] = molecular target: NuMA-tail (1970–2091)—GFP (human) (UniProt Q14980); test: as above
[3] = molecular target: GFP-tagged WT NuMA-tail II (aa 1868–2091) (human) (UniProt Q14980); test: ITC

fold reduction of the GFP signal of m1 on microtubules [1] [fold] | fold reduction of the microtubule binding of m17 [2] [fold] | Kd [3] [nM] | Substance
50 | 80 | 2200 | 1:1 stoichiometric mixture of full-length Importin-α and Importin-β (from UniProt P52292 1-529; Q14974 1-876) (complex)
– | – | 250 | Importin-α lacking the Importin-β binding (IBB) domain (aa 70–524), mouse (from UniProt P52293 70-524) (domain or fragment)
